Some targets named below: E2F-1/S332-7A (UniProt Q01094 1-437, S332-7A | S332-7A); E2F-1/S375A (UniProt Q01094 1-437, S375A); E2F-1/S403A (UniProt Q01094 1-437, S403A); E2F-1/Y411A (UniProt Q01094 1-437, Y411A).
What all share (test): co-IP

B1: pRB (natural protein, mouse (endogenous in ψ-CRE), UniProt P13405 1-921, looked up)
chain: MPPKAPRRAAAAEPPPPPPPPPREDDPAQDSGPEELPLARLEFEEIEEPEFIALCQKLKVPDHVRERAWLTWEKVSSVDGILEGYIQKKKELWGICIFIAAVDLDEMPFTFTELQKSIETSVYKFFDLLKEIDTSTKVDNAMSRLLKKYNVLCALYSKLERTCELIYLTQPSSALSTEINSMLVLKISWITFLLAKGEVLQMEDDLVISFQLMLCVVDYFIKFSPPALLREPYKTAAIPINGSPRTPRRGQNRSARIAKQLENDTRIIEVLCKEHECNIDEVKNVYFKNFIPFINSLGIVSSNGLPEVESLSKRYEEVYLKNKDLDARLFLDHDKTLQTDPIDSFETERTPRKNNPDEEANVVTPHTPVRTVMNTIQQLMVILNSASDQPSENLISYFNNCTVNPKENILKRVKDVGHIFKEKFANAVGQGCVDIGVQRYKLGVRLYYRVMESMLKSEEERLSIQNFSKLLNDNIFHMSLLACALEVVMATYSRSTLQHLDSGTDLSFPWILNVLNLKAFDFYKVIESFIKVEANLTREMIKHLERCEHRIMESLAWLSDSPLFDLIKQSKDGEGPDNLEPACPLSLPLQGNHTAADMYLSPLRSPKKRTSTTRVNSAANTETQAASAFHTQKPLKSTSLALFYKKVYRLAYLRLNTLCARLLSDHPELEHIIWTLFQHTLQNEYELMRDRHLDQIMMCSMYGICKVKNIDLKFKIIVTAYKDLPHAAQETFKRVLIREEEFDSIIVFYNSVFMQRLKTNILQYASTRPPTLSPIPHIPRSPYKFSSSPLRIPGGNIYISPLKSPYKISEGLPTPTKMTPRSRILVSIGESFGTSEKFQKINQMVCNSDRVLKRSAEGGNPPKPLKKLRFDIEGADEADGSKHLPAESKFQQKLAEMTSTRTRMQKQRMNESKDVSNKEEK
Take B1: the “fold change of the pRB/E2F-1 co-IP ratio against E2F-1/wt” value is ~3 fold (increase) with E2F-1/S332-7A, ~2.5 fold (increase) with E2F-1/S375A, ~3 fold (increase) in the assay with E2F-1/S403A and ~4 fold (decrease) with E2F-1/Y411A.
